Measurements as given in US20260000781A1 (CIDARA THERAPEUTICS, published 2026).

T1: mouse CD73 expressed on cells (mouse, UniProt Q61503 29-551)
T1 sequence (looked up): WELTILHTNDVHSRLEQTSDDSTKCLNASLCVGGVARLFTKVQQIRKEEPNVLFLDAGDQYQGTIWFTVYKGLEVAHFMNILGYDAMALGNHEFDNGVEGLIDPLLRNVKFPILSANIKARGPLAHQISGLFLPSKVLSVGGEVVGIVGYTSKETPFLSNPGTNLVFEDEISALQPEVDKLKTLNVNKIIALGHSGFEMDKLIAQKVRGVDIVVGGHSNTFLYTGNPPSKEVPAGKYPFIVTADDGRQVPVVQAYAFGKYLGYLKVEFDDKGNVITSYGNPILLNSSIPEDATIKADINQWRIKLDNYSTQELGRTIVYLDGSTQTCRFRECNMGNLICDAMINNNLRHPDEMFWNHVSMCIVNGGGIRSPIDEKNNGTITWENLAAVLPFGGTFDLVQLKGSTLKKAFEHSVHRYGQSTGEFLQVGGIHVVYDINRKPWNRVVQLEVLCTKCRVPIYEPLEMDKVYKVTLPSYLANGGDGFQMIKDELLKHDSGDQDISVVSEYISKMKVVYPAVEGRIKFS

T2: Enzymatically active His-tagged human CD73/NT5E protein (human, UniProt P21589 27-547)
T2 construct: Bought protein; also called human CD73/NT5E protein, His-tag (Acro Biosystems cat CD3-H52H7); not shown: His-tag
T2 sequence (looked up): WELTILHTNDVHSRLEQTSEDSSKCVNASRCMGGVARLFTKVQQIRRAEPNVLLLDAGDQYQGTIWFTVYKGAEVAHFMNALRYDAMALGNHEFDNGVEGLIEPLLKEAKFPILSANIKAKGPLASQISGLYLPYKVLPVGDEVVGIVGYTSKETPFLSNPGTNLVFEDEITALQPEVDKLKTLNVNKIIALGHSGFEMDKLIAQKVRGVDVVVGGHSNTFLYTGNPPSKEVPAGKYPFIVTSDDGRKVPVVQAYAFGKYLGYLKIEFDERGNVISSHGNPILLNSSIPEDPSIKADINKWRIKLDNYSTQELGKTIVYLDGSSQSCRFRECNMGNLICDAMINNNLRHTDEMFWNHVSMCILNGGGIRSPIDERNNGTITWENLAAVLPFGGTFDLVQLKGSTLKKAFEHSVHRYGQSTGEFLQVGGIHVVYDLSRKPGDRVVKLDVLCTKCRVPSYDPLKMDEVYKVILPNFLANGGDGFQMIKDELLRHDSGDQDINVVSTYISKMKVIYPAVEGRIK

T3: human CD73 expressed on cells (human, UniProt P21589 27-549)
T3 sequence (looked up): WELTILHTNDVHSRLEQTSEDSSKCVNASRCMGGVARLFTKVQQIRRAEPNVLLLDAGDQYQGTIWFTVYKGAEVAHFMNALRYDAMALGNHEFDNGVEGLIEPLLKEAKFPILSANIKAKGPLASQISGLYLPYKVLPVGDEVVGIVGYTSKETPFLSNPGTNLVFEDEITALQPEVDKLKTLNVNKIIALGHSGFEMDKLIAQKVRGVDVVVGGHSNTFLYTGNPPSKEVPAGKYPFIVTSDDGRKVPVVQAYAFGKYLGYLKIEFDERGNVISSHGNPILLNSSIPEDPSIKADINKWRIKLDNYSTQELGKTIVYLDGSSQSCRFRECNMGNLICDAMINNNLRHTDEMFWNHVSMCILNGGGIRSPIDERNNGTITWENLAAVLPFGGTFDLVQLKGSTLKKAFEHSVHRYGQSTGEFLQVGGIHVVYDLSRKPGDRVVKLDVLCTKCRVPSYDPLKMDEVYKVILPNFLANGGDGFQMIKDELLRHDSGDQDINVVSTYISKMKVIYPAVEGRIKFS


Key:
[1] = biological target: T1, mouse CD73 expressed on cells; assay: cell-based or functional assay
[2] = biological target: T2, Enzymatically active His-tagged human …; assay: SPR (Biacore 8K), His-tagged human CD73 captured by anti-His antibody, mAb as analyte
[3] = biological target: T1, mouse CD73 expressed on cells; assay: cell-based or functional assay; remark: listed apart in the source
[4] = biological target: T3, human CD73 expressed on cells; assay: cell-based or functional assay
[5] = biological target: T3, human CD73 expressed on cells; assay: cell-based or functional assay; remark: listed apart in the source
[6] = biological target: T3, human CD73 expressed on cells; assay: cell-based or functional assay; remark: listed apart in the source
[7] = biological target: T3, human CD73 expressed on cells; assay: cell-based or functional assay; remark: listed apart in the source
[8] = biological target: T3, human CD73 expressed on cells; assay: cell-based or functional assay; remark: listed apart in the source
[9] = biological target: T3, human CD73 expressed on cells; assay: cell-based or functional assay; remark: listed apart in the source
[10] = biological target: T3, human CD73 expressed on cells; assay: cell-based or functional assay; remark: listed apart in the source
[11] = biological target: T3, human CD73 expressed on cells; assay: cell-based or functional assay; remark: listed apart in the source
[12] = biological target: T3, human CD73 expressed on cells; assay: cell-based or functional assay; remark: listed apart in the source

Binder | CD73 inhibition, mouse 4T1 cells, 3 h IC50 [nM] [1] [nM] | CD73 inhibition, mouse 4T1 cells, 24 h IC50 [nM] [1] [nM] | Kd [2] [nM] | CD73 inhibition, mouse EMT6 cells, 3 h IC50 [nM] [3] [nM] | CD73 inhibition, mouse EMT6 cells, 24 h IC50 [nM] [3] [nM] | CD73 inhibition, human PBMCs, 3 h IC50 [nM] [4] [nM] | CD73 inhibition, human PBMCs, 24 h IC50 [nM] [4] [nM] | Cell-based CD73 inhibition IC50 (nM), MDA-MB-231 cells [5] [nM] | PBMC activation, CD4+CD25+ EC50 [nM] (median, n = 3) [6] | PBMC activation, CD8+CD25+ EC50 [nM] (median, n = 3) [6] | PBMC activation, CD8+Granzyme B+ EC50 [nM] (median, n = 3) [6] | CD73 inhibition, human PBMCs, 3 h median IC50 [nM] [7] [nM] | CD73 inhibition, human PBMCs, 24 h median IC50 [nM] [7] [nM] | PBMC activation, CD8+CD25+ EC50 [nM] [8] [nM] | PBMC activation, CD8+granzyme B+ EC50 [nM] [8] [nM] | Cell internalization EC50 (nM), Fab-ZAP saporin assay, MDA-MB-231 [9] [nM] | inhibition of adenosine production (AMP conversion by CellTiter-Glo), human PBMCs, EC50 [nM] [10] [nM] | PBMC activation (CD25+), 30 µM AMP EC50 [nM] [11] [nM] | cell-based CD73 enzyme inhibition IC50 (MDA-MB-231 cells) [12] [nM]
Mupadolimab (antibody, V domains shown) VH: QVQLVQSGAEVEKPGASVKVSCKASGYTFTSYWITWVRQAPGQGLEWMGDIYPGSGNTNYNEKFKTRVTITADKSTSTAYMELSSLRSEDTAVYYCAKEGGLTTEDYALDYWGQGTLVTVSS VL: EIVLTQSPATLSLSPGERATLSCRASKNVSTSGYSYMHWYQQKPGQAPRLLIYLASNLESGIPPRFSGSGYGTDFTLTINNIESEDAAYYFCQHSRELPFTFGQGTKVEIK | > 100 | > 100 | 123 | > 100 | > 100 |  |  |  |  |  |  |  |  |  |  |  |  |  | 
Oleclumab (antibody, V domains shown) VH: EVQLLESGGGLVQPGGSLRLSCAASGFTFSSYAYSWVRQAPGKGLEWVSAISGSGGRTYYADSVKGRFTISRDNSKNTLYLQMNSLRAEDTAVYYCARLGYGRVDEWGRGTLVTVSS VL: QSVLTQPPSASGTPGQRVTISCSGSLSNIGRNPVNWYQQLPGTAPKLLIYLDNLRLSGVPDRFSGSKSGTSASLAISGLQSEDEADYYCATWDDSHPGWTFGGGTKLTVL | > 100 | > 100 | 0.527 | 5.68 | > 100 | 0.56 | > 100 | 0.67 | > 1000 | > 1000 | > 1000 | 7.26 | 89.4 | > 1000 | > 1000 | 0.02 | 288 | > 1000 | 0.11
